Experimental data taken from patent EP1832653A1.

Molecular target: monoclonal antibody M75 (MAb M75), secreted from the hybridoma VU-M75, ATCC HB 11128
Test: competition ELISA: peptide in solution against immobilized GST-MN for M75

- IC50: 1 ng/mL
Binder: GGSSGEDDPLGEEDLPSEEDSP [oligopeptide … (aa 51-72) [SEQ ID NO: 104]]
